According to the supplement of paper PMC10567573:

B1: FBF1 (parent)
chain: YQRPQDSEDMWGDEDFTFGAYQPT
B2: PRPH (parent)
chain: DEIEFLKKLHEEELRDLQVSVESQ

Variants of: B1
Assay: protein stability index of a GFP-peptide fusion (GPS, HEK-293T) (PSI 1-6); higher = more stable
Details: c terminus: a fixed tail appended
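Also: lentivirally expressed fusions sorted by FACS into six bins by GFP to DsRed ratio, PSI derived from sequencing read proportions per bin multiplied by bin number.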

Protein stability index of substitutions, site by site:
T17: M 2.59; P 2.93; I 2.36; W 1.84; R 2.68; G 3.01; K 2.68; H 2.86; F 2.53; C 2.65; Y 2.1; V 3.07; E 3.04; D 3.37; N 3.04; A 3.46; L 2.31; Q 3.44; S 2.65
Q22: S 3.03; T 2.28; V 2.37; R 2.65; N 2.57; H 2.43; K 1.95; W 1.94; Y 3.22; M 2.22; A 2.77; L 2.77; D 3.06; P 3.19; E 3.19; C 2.6; F 2.38; G 2.86; I 2.45
A20: W 2.04; I 2.11; C 2.18; R 2.18; S 2.69; K 2.94; P 2.92; T 3.05; Q 2.97; F 2.38; M 2.62; D 3.02; G 2.91; V 2.72; L 2.76; Y 2.79; H 2.95; N 2.9; E 3.29
P23: A 2.47; I 2.64; H 3.32; W 2.19; K 2.68; G 3.19; Q 3.06; V 2.4; N 3.1; S 2.61; E 3.36; M 2.26; D 3.06; L 2.87; R 2.67; Y 2.85; C 2.96; F 2.74; T 2.87
T24: G 3.25; C 2.83; H 2.27; F 2.29; M 2.52; E 2.58; D 2.88; V 2.63; K 3.02; R 2.38; I 2.24; S 2.67; Y 2.44; W 1.99; P 3.17; A 2.79; N 3.02; L 2.23; Q 2.68
Y21: F 2.98; P 3.56; W 2.04; V 2.92; T 3.1; M 2.78; G 3.46; D 3.73; A 3.51; N 3.51; Q 3.39; S 3.51; C 3.17; E 3.75; L 3.35; H 3.07; K 3.44; R 3.06; I 3.16
G19: D 3.49; P 2.77; K 2.51; W 1.84; T 2.6; L 2.33; Y 2.35; N 3.1; Q 2.78; E 3.76; V 2.8; M 2.88; C 2.53; I 2.64; A 2.59; R 2.47; H 2.67; F 2.56; S 3.18
F18: G 3.6; H 3.04; I 3.06; Y 3.02; D 3.9; L 2.65; A 3.43; P 3.62; W 2.53; T 3.77; S 3.98; E 3.62; R 3.61; V 3.8; Q 3.35; C 3.19; N 3.93; K 3.6; M 3.25
F16: L 2.71; H 3; K 2.87; E 3.73; Y 2.83; R 2.73; A 2.9; I 3.14; G 3.23; Q 3.4; S 3.29; D 3.48; N 3.61; M 3.17; T 2.8; P 2.71; C 2.85; W 2.73; V 2.88
D15: V 1.86; Y 2.23; W 1.78

Variants of: B2
Assay: as above
Details: c terminus: a fixed tail appended

Protein stability index of substitutions, site by site:
F5: C 5.15; V 4.95; H 4.85; A 4.69; K 4.73; Q 5.41; Y 4.58; I 4.92; L 5.18; R 4.79; T 5.1; P 5.22; N 4.9; D 5.27; E 5.47; G 5.36; S 5.07; M 5; W 4.42
E4: F 3.96; D 4.93; S 4.93; C 3.93; M 4.53; G 4.57; I 4.12; W 3.18; Y 3.9; A 4.36; L 4.15; H 4.55; T 4.16; N 4.91; K 4.18; Q 4.34; P 4.62; R 3.98; V 4.21
L6: F 4.42; H 5.21; V 4.46; Y 4.72; G 5.07; M 4.89; P 5.33; C 5.09; A 5.48; E 5.18; S 5.12; W 4.61; Q 5.54; D 5.56; K 4.99; N 5.61; T 5.13; R 4.91; I 4.97
L9: D 5.27; I 4.88; G 5.58; C 4.9; E 5.05; A 5.02; H 5.29; K 5.49; F 4.65
D1: N 4.78; T 4.71; H 4.99; R 4.01; W 3.97; K 3.95; I 3.46; C 3.41; L 4.63; M 4.18; E 4.78; P 4.53; Q 3.77; S 4.64; Y 4.32; G 4.53; V 4.31; A 4.22; F 4.07
K7: D 5.06; S 3.85; W 1.96; F 2.11; N 5.18; Q 4.61; I 2.03; A 4.11; V 2.59; L 2.37; P 5.04; H 4.21; C 2.85; E 4.83; Y 2.42; M 3.07; T 3.15; G 4.52; R 4.59
K8: Q 4.98; I 4.35; V 4.06; E 4.37; C 3.8; A 5.1; M 4.25; Y 4.23; D 4.89; N 4.84; G 4.55; L 4.32; S 4.15; F 3.94; T 4.78; R 4.61; H 4.63; W 3.45; P 5.23
I3: P 4.94; A 5.36; G 5.05; K 5.18; W 4.41; N 5.46; H 5.24; Y 4.8; T 5.25; Q 5.08; V 4.83; R 5.28; L 4.84; E 5.43; F 4.88; S 5.42; D 5.68; C 5.09; M 4.96
E2: P 4.13; G 3.56; M 2.05; Y 1.91; N 4.67; A 2.22; T 2.98; K 3.94; D 5.01; R 4.39; W 1.69; V 2; C 2.04; F 2.13; S 3.65; I 2.1; Q 3.73; H 4.08
